Laboratory results reported in PMC3526285.

Test system: TRMT10C (native, untagged, in complex);SDR5C1 (Homo sapiens;Homo sapiens)
Test: EMSA
Settings: concentration refers to TRMT10C content; EMSA: 1 nM 5'-labelled pre-tRNA, 10 nM-1.2 uM protein, methylation/processing buffer (composition not in material) + 100 mM sucrose, 30 min at room …

Substance	Kd [µM]
(mt)pre-tRNAIle	0.088
(mt)pre-tRNAHis	0.143
